The values that follow come from publication PMC3643854.

Experiment [1] concerns the target HIV-1 AD8 gp41 W596L/K601H (HIV-1 AD8).
For experiment [2], the target named is HIV-1 AD8 gp41 W596L/K601H/D674E (HIV-1 AD8).
For experiment [3], the target named is HIV-1 AD8 gp120 surface glycoprotein. Nature of the experiment: Western blotting of pelleted virions (virion-associated gp120 normalised to p24). The note with it: virions from 293T cells transfected with pAD8 proviral clones; virions were analysed at 48 h posttransfection; parent: 2.16. For orientation: A western blot detects proteins with antibodies after separation by electrophoresis.

Experiment [4] has the same target. Kind of experiment: immunoprecipitation of pulse-chase biosynthetically labelled Env from cell lysates (c) and supernatants (s), SDS-PAGE and phosphorimaging. The note with it: transfected 293T cells; cellular Env was analysed 5 h post synthesis; parent: 1.

As for C34 fusion inhibitor peptide, the neutralization of HIV-1 AD8 virus in TZM-bl cells (luciferase), C34 IC50 against that for WT virus (log10 decrease against WT) in experiment [1] and in experiment [2] was 0.5 throughout.

As for “HIV-1 AD8 gp41 transmembrane glycoprotein, wild type W596L; K601H”, in experiment [3], the other: gp120 pixels/p24 pixels came out at 0.93. Further, in experiment [4], the ratio to parent was determined as 3.37.

With “HIV-1 AD8 gp41 transmembrane glycoprotein, wild type W596L; K601H; D674E”, in experiment [3], the other: gp120 pixels/p24 pixels was 1.07. Besides, the ratio to parent in experiment [4] turned out to be 3.59.

For the substance “HIV-1 AD8 gp41 transmembrane glycoprotein, wild type WL/KH/DG”, the other: gp120 pixels/p24 pixels in experiment [3] is 0.8. Further, the ratio to parent in experiment [4] was 5.36.

In the case of “HIV-1 AD8 gp41 transmembrane glycoprotein, wild type WL/KH/DN”, in experiment [3], the other: gp120 pixels/p24 pixels was 0.67. In addition, the ratio to parent in experiment [4] is 3.96.

For the substance “HIV-1 AD8 gp41 transmembrane glycoprotein, wild type ΔTW/WL/KH/DN”, the other: gp120 pixels/p24 pixels in experiment [3] came out at 0.6. In experiment [4], the ratio to parent is 4.13.
